Laboratory results: paper PMC8421139 (Nucleic Acids Research, 2021)

Biological target: Flag-DHX9 recombinant protein (UniProt Q08211 1-1270)
Assay: pull-down

Flag-DHX9 recombinant protein, sequence (Q08211 whole entry): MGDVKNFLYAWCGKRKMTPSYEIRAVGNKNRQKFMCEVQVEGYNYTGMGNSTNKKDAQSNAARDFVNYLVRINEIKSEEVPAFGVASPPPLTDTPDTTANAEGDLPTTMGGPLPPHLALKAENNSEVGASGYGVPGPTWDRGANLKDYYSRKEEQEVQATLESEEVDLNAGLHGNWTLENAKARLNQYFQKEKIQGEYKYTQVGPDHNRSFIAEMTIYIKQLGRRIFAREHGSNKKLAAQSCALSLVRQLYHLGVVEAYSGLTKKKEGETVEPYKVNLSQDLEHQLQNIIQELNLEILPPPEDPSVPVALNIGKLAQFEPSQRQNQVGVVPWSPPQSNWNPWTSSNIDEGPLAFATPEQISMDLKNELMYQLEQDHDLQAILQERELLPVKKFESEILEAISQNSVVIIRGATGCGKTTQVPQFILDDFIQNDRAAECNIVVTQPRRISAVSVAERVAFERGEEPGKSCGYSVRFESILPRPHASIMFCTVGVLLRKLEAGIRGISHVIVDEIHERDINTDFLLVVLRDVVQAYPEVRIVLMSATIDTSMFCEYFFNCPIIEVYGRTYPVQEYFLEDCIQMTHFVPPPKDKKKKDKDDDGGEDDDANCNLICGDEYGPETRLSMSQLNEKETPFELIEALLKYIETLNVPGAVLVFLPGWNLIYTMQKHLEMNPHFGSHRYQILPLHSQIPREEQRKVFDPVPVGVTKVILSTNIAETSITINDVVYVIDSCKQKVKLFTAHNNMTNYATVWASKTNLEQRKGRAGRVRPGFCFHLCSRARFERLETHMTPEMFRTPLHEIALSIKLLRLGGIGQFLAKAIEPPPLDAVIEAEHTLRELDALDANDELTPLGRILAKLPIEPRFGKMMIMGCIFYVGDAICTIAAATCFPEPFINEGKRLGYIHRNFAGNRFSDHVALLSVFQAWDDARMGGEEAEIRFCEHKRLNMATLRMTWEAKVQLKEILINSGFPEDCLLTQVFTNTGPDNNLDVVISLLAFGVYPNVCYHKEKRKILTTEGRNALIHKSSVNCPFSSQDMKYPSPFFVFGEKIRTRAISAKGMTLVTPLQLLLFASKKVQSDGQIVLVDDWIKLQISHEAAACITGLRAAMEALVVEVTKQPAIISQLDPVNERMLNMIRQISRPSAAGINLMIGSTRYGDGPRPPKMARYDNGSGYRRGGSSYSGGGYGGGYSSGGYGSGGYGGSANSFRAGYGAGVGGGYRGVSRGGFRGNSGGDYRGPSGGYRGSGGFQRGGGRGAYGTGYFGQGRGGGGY

B1: GST-TDRD3 (natural protein)
chain: MAQVAGAALSQAGWYLSDEGIEACTSSPDKVNVNDIILIALNTDLRTIGKKFLPSDINSGKVEKLEGPCVLQIQKIRNVAAPKDNEESQAAPRMLRLQMTDGHISCTAVEFSYMSKISLNTPPGTKVKLSGIVDIKNGFLLLNDSNTTVLGGEVEHLIEKWELQRSLSKHNRSNIGTEGGPPPFVPFGQKCVSHVQVDSRELDRRKTLQVTMPVKPTNDNDEFEKQRTAAIAEVAKSKETKTFGGGGGGARSNLNMNAAGNRNREVLQKEKSTKSEGKHEGVYRELVDEKALKHITEMGFSKEASRQALMDNGNNLEAALNVLLTSNKQKPVMGPPLRGRGKGRGRIRSEDEEDLGNARPSAPSTLFDFLESKMGTLNVEEPKSQPQQLHQGQYRSSNTEQNGVKDNNHLRHPPRNDTRQPRNEKPPRFQRDSQNSKSVLEGSGLPRNRGSERPSTSSVSEVWAEDRIKCDRPYSRYDRTKDTSYPLGSQHSDGAFKKRDNSMQSRSGKGPSFAEAKENPLPQGSVDYNNQKRGKRESQTSIPDYFYDRKSQTINNEAFSGIKIEKHFNVNTDYQNPVRSNSFIGVPNGEVEMPLKGRRIGPIKPAGPVTAVPCDDKIFYNSGPKRRSGPIKPEKILESSIPMEYAKMWKPGDECFALYWEDNKFYRAEVEALHSSGMTAVVKFIDYGNYEEVLLSNIKPIQTEAWEEEGTYDQTLEFRRGGDGQPRRSTRPTQQFYQPPRARN
binding result: binds
